From the supplement of paper PMC9170038 come the findings set out here.

The series deals with MS2 coat protein. Nature of the series: apparent KD of MS2 coat protein; designed switch direction (-1 OFF switch, 1 ON switch): -1; higher = weaker reporter binding. In short, it runs like this: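 An oligonucleotide input, 200 uM small-molecule ligand, or no input was present during titration of SNAP-549-labelled MS2 coat protein, which was doubled from 0.7 or 1.5 nM to 3 µM. Designed RNA switches had been transcribed on Illumina chips by stalled E. coli RNA polymerase. Apparent KD per design is the median over clusters of curves fitted to normalised cluster fluorescence.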

Where [1] appears, read: input ligand: microRNA oligo, concentration not stated.
The mark [2] stands for this setting: Eterna round: R95, input ligand: microRNA oligo, concentration not stated.
[3] abbreviates: Eterna round: R95, input ligand: FMN 200 uM.
Setting [4] is: Eterna round: R95, input ligand: none.

Take “UUCAGGAGUCGAGGAUAUUUGCAGACGACAUGAGGAUCACCCAUGUGGUUAGCAUAGUCUUCAGCAGAGAAGGCGACCAACGAG [Eternabot solution 20] (Eterna round: R96, puzzle: Exclusion NG 2)”: the “apparent KD of MS2 coat protein” value runs as follows: (input ligand: FMN 200 uM) 171 nM; under setting [1], 40 nM; (input ligand: none) 40.3 nM.

As for “UUCAUGUGAGGAUAUGUGUACUGUUUUUUGUUUAGAUGUACACAGAAGGCACAUGAGGAUCACCCAUGUAGUAC [Ex4 - 3 - 32] (puzzle: Exclusion 4)”, under setting [2], the “apparent KD of MS2 coat protein” value amounted to 30 nM.

Take “UUCCUACUUGAGGAUCACCCAAGUCAGGAUAUCCAUAACCGACACUCUUUUCGGAGCGGGAGAAGGGACUUGGC [Arbedi] (Eterna round: R97, puzzle: Exclusion 1)”: the “apparent KD of MS2 coat protein” value reads like this: (input ligand: FMN 200 uM) 119 nM; (input ligand: none) 52.9 nM.

Turning to “UUCCUCAGCUAGGAUAUCAAGGCACCACCCUAAUGAGAAGGAGCAACAUGAGGAUCACCCAUGUGGGUUUCUUA [Aterre] (Eterna round: R97, puzzle: Exclusion 6)”, the “apparent KD of MS2 coat protein” value was 143 nM (input ligand: FMN 200 uM) and 54.9 nM (input ligand: none).

“UUCCUCGUUGUGAGGAUAUCGUCCGUGUUUUGUUACGAGAAGGCACAUGAGGAUCACCCAUGUUACUUGAUGUU [JR_BMOE4_Sub073] (Eterna round: R96, puzzle: Brourd's mod of Exclusion 4)”: the “apparent KD of MS2 coat protein” value amounted to 150 nM (input ligand: FMN 200 uM), 19 nM under setting [1] and 23.3 nM (input ligand: none).

Regarding “UUCCUCGUUGUGAGGAUAUCGUCCGUGUUUUGUUACGAGAAGGCACAUGAGGAUCACCCAUGUUACUUGAUGUU [JR_BMOE4_Sub073] (puzzle: Brourd's mod of Exclusion 4)”, the “apparent KD of MS2 coat protein” value under setting [2] was 18.9 nM.

“UUCGUGCAGCUUUGCUGUACGAGUACAUGAGGAUCACCCAUGUAGGAUAUGGUACGCUUUGCGUGCUAGAAGGAUAUGUGUAGC [salish99_ExNG3_r04_504] (Eterna round: R96, puzzle: Exclusion NG 3)”: the “apparent KD of MS2 coat protein” value under setting [1] was determined as 25.7 nM.

Turning to “UUCGUGCAGCUUUGCUGUACGCGUACAUGAGGAUCACCCAUGUAGGAUAUGGUACGCAAAGCGUGCUAGAAGGAUAUGGAGAGG [Mat - Exclusion NG 3 - Mod of JL - D81] (Eterna round: R96, puzzle: Exclusion NG 3)”, the “apparent KD of MS2 coat protein” value by setting is: (input ligand: FMN 200 uM) 11.7 nM; under setting [1], 8.08 nM; (input ligand: none) 13.1 nM.

Consider “UUCUUAUAUGAAGGAUAUACUUAACAUGAGGAUCACCCAUGUGGUGUUGUGAGUGAGUGAGUUUAGUAGAAGGUCAAUUCUUUU [JMF's solution 95] (Eterna round: R96, puzzle: Exclusion NG 2)”, for which the “apparent KD of MS2 coat protein” value reads like this: (input ligand: FMN 200 uM) 818 nM; under setting [1], 326 nM; (input ligand: none) 355 nM.

Turning to “UUCUUGGCAGGAUAUGCUCUUUUAGACAUGAGGAUCACCCAUGUGUUUAUUCUUUUUUUUGCAGAAGGGCCUUAAU [JR_E5_Sub044] (Eterna round: R96, puzzle: Exclusion 5)”, the “apparent KD of MS2 coat protein” value reads like this: (input ligand: FMN 200 uM) 176 nM; under setting [1], 68.6 nM; (input ligand: none) 98.1 nM.

“UUCUUGGCAGGAUAUGCUCUUUUAGACAUGAGGAUCACCCAUGUGUUUAUUCUUUUUUUUGCAGAAGGGCCUUAAU [JR_E5_Sub044] (puzzle: Exclusion 5)”: the “apparent KD of MS2 coat protein” value under setting [2] is 87.9 nM.

Regarding “UUGAAUUAUAAGGAUAUGGGAGUCGAUAGACACCCAGAAGGUAUAACAUGAGGAUCACCCAUGUGUCCUAUCAA [Mod of Eli 25 - Jieux - Exclusion 6] (Eterna round: R97, puzzle: Exclusion 6)”, the “apparent KD of MS2 coat protein” value runs as follows: (input ligand: FMN 200 uM) 33.6 nM; (input ligand: none) 18.2 nM.

“UUGACUGGCGAGGAUAUCUCGCAAUAGUUAGGGAGAGAAGGUGCUACAUGAGGAUCACCCAUGUCAAACGAACC [Eternabot (L1) Solution 58] (Eterna round: R97, puzzle: Exclusion 6)”: the “apparent KD of MS2 coat protein” value by setting is: (input ligand: FMN 200 uM) 17.7 nM; (input ligand: none) 21.9 nM.

For “UUGAGCAGACGGAGAUCCAACAUGAGGAUCACCCAUGUCUCAAAAGCUUUUUGCUCAUCUUAUCGUACCUUGGUGCU [Mat - Sensor v3 - turn-off var 1 - JL Mod - D15] (puzzle: Sensor v3, turn-off variant 1)”, the “apparent KD of MS2 coat protein” value under setting [3] stood at 155 nM, the “apparent KD of MS2 coat protein” value under setting [2] came to 9.75 nM and the “apparent KD of MS2 coat protein” value under setting [4] is 302 nM.

Regarding “UUGAGGUAAGGAUAUAUUAGGAGCGAAGUUACUUGUUUUUUAUAGAAGGUACAUGAGGAUCACCCAUGUGAAUA [JR_Exclu4_Sub062] (puzzle: Exclusion 4)”, under setting [2], the “apparent KD of MS2 coat protein” value was found to be 24.7 nM.

In the case of “UUGAUGUGAGGAUAUAUUUAGUGUUUUCUUUAUGUUUUAUAACUUGAGGAUCACCCAAGUAGAAGGCGCUACGU [JR_Ex2_Sub066] (Eterna round: R97, puzzle: Exclusion 2)”, the “apparent KD of MS2 coat protein” value is, setting by setting: (input ligand: FMN 200 uM) 19 nM; (input ligand: none) 13.9 nM.

For the sequence “UUGCAGUCGUCAGGAUAUAGUAUUACGGCCAUUUUUUUUUUCAUACAUGAGGAUCACCCAUGUCGCUAGAAGGGAUUAUCGAUU [salish99_ExNG2_r04_103] (Eterna round: R96, puzzle: Exclusion NG 2)”, the “apparent KD of MS2 coat protein” value was determined as 71 nM (input ligand: FMN 200 uM), 57.1 nM under setting [1] and 67 nM (input ligand: none).

“UUGUACAUAGGAUAUAGUUGUUUGUACAUGAGGAUCACCCAUGUUAUGUAUGUUUUGCUUCUAGAAGGAUGUUGUU [JR_E5_Sub004] (Eterna round: R96, puzzle: Exclusion 5)”: the “apparent KD of MS2 coat protein” value by setting is: (input ligand: FMN 200 uM) 28.5 nM; under setting [1], 25.8 nM; (input ligand: none) 34.5 nM.

Consider “UUGUACAUAGGAUAUAGUUGUUUGUACAUGAGGAUCACCCAUGUUAUGUAUGUUUUGCUUCUAGAAGGAUGUUGUU [JR_E5_Sub004] (puzzle: Exclusion 5)”, for which the “apparent KD of MS2 coat protein” value under setting [2] was 28 nM.

Consider “UUGUGCACGCUGCGGUCCUACAUGAGGAUCACCCAUGUGGUCUGGUGGCGUGGGUCACCGGACUUGGCUCGUCUUGU [salish99_S_TOV1_R5_060] (Eterna round: R97, puzzle: Sensor, turn-off variant 1)”, for which the “apparent KD of MS2 coat protein” value is 36.2 nM (input ligand: FMN 200 uM) and 42.3 nM (input ligand: none).

In the case of “UUGUUACAUGAGGAUCACCCAUGUGAGGAUAUGGUUCAGUACUGUCAUGUCAAGUACUCCAGAAGGCACAUGUU [1st #30] (Eterna round: R97, puzzle: Exclusion 1)”, the “apparent KD of MS2 coat protein” value is, setting by setting: (input ligand: FMN 200 uM) 566 nM; (input ligand: none) 508 nM.

Regarding “UUGUUACGAUUAGGAUAUUAUUGAUUGGACAGUAUGAUUUACAUGAGGAUCACCCAUGUUACUUUUAAGAAGGAAUCGUAUUAU [JR_ExcNG2_Sub090] (Eterna round: R96, puzzle: Exclusion NG 2)”, under setting [1], the “apparent KD of MS2 coat protein” value turned out to be 14.8 nM.

For “UUGUUAUAUGUAGGAUAUGCAUAUUAUUAUUAUGCAGAAGGACAUGAGGAUCACCCAUGUAUAUUAUUGUUAUAUGUUAUAUAU [Title] (Eterna round: R96, puzzle: Exclusion NG 1)”, the “apparent KD of MS2 coat protein” value under setting [1] worked out at 16.6 nM.

Consider “UUGUUAUAUGUAGGAUAUGCGUGUUAUUAUUAGGCAGAAGGACAUGAGGAUCACCCAUGUAUGUUGUUGUUAUAUAUUAUAUAU [Title] (Eterna round: R96, puzzle: Exclusion NG 1)”, for which the “apparent KD of MS2 coat protein” value is, setting by setting: (input ligand: FMN 200 uM) 22.9 nM; under setting [1], 17.8 nM; (input ligand: none) 25.6 nM.

In the case of “UUGUUCCAUGUAGGAUAUGCAUAUUCUCAUUAUGCAGAAGGACAUGAGGAUCACCCAUGUAUGUUAUUAUUAUAUGUUACAUGU [Design 2] (Eterna round: R96, puzzle: Exclusion NG 1)”, the “apparent KD of MS2 coat protein” value stood at 613 nM (input ligand: FMN 200 uM), 54.6 nM under setting [1] and 78.5 nM (input ligand: none).

On to “UUGUUGUAUGUAGGAUAUGCAUGUUAUUAUUAUGCAGAAGGACAUGAGGAUCACCCAUGUAUAUUAUUAUUAUAUGUUAUAUAU [Title] (Eterna round: R96, puzzle: Exclusion NG 1)”, for which the “apparent KD of MS2 coat protein” value (input ligand: FMN 200 uM) amounted to 22.2 nM, the “apparent KD of MS2 coat protein” value under setting [1] amounted to 17.9 nM and the “apparent KD of MS2 coat protein” value (input ligand: none) is 23.9 nM.

In the case of “UUUAAAACAUAGGAUAUCGAAUUAAUCAUUUAACGAGAAGGAUGAACAUGAGGAUCACCCAUGUGGUAUCAUGG [Mat - Exclusion 6 - JL Mod - D19] (puzzle: Exclusion 6)”, the “apparent KD of MS2 coat protein” value was found to be 282 nM under setting [3], 274 nM under setting [2] and 270 nM under setting [4].

On to “UUUAAGGCUGAGGAUAUGUGGUCCGCCAAAGACAUAGAAGGUAGCACAUGAGGAUCACCCAUGUCACGAAAAGU [Eternabot (L1) Solution 81] (Eterna round: R97, puzzle: Exclusion 6)”, for which the “apparent KD of MS2 coat protein” value is, setting by setting: (input ligand: FMN 200 uM) 54.3 nM; (input ligand: none) 52.7 nM.

“UUUAAGUCAGGAUAUCGUUAAUUUAAUAAAUAAAUUUAAUUCGAGAAGGGACAUGAGGAUCACCCAUGUAAUUU [Ex4 #1] (Eterna round: R97, puzzle: Exclusion 4)”: the “apparent KD of MS2 coat protein” value was determined as 45.5 nM (input ligand: FMN 200 uM) and 34.8 nM (input ligand: none).

For “UUUAAUCGUGACAUGGGUGACAUGAGGAUCACCCAUGUCACAAGCUUCUCGCUCGUCUUAUAAUUAACCCAUGUCAC [LRO Sensor-off var1-13 mod of Stov1-13-A1 by Brourd] (Eterna round: R97, puzzle: Sensor, turn-off variant 1)”, the “apparent KD of MS2 coat protein” value runs as follows: (input ligand: FMN 200 uM) 17.3 nM; (input ligand: none) 18.7 nM.

Take “UUUAAUUUUUUUUUUUUACAAGCUUUUUGCUCGUCUUAUACAUGAGGAUCACCCAUGUAGGUGAAGGAUAAAUUAUC [JMF 27] (puzzle: Sensor v3, turn-off variant 2)”: the “apparent KD of MS2 coat protein” value worked out at 25.9 nM under setting [3], 66.4 nM under setting [2] and 35.9 nM under setting [4].
